Measured values: patent publication US20240141038A1 (SHANGHAI QILU PHARMACEUTICAL RESEARCH AND DEVELOPMENT CENTRE, published 2024)

Columns and labels:
[1] = target: T1, Human NKp46 antigen for immunization, screening, and testing (Kactus, NKP-HM146) (human, UniProt O76036 22-255); assay: SPR (Biacore 8K), antibody captured on anti-human Fc, NKp46 as analyte, 1:1 fit
T1 construct: Bought protein; also called human NKp46 antigen protein; human NKp46 protein
Experimental: Human NKp46 was diluted in two-fold to a serial concentration (400 nM-3.125 nM), then combined for 90 s at a flow rate of 50 μL/min, and dissociated for 500 s.
(§1) At the end of each round of experiments, 3 M MgCl₂ solution was used to rinse at a flow rate of 30 μL/min for 30 s, and the captured antibody was removed along with the antigen to complete the regeneration of the chip. The raw data were analyzed using Biacore Insight Evaluation Software (version 3.0.12.15655) software and (1:1) Langmuir model was fit to the data. Compared with the anti-NKp46 humanized antibody and the corresponding chimeric antibody, the affinity to the human NKp46 antigen protein is mostly maintained.

[2] = target: T2, human NKp46 (full length, on cells) (human, UniProt O76036 22-304); assay: flow cytometry on human NKp46-CHOK1 cells
T2 construct: also called human NKp46-CHOK1
Experimental: (§2) The stable human NKp46-CHOK1 and cynomolgus monkey NKp46-CHOK1 cell lines obtained in Example 2 were cultured, the cells were digested with 0.25% pancreatic enzyme EDTA for about 5 minutes, and the digestion was terminated with the complete medium. After centrifugation at 1,500 rpm for 5 minutes, the supernatant was discarded, the precipitated cells were resuspended with PBS containing 1% BSA and counted. The cell density was adjusted to 1E6/mL and seeded in a corning-3799 96-well culture plate at 100 μL/well. Aftering centrifuging at 1,500 rpm for 5 minutes, the supernatant was discarded and the precipitate was set aside at 4° C. The antibody solutions were prepared with PBS containing 1% BSA, wherein the antibody solution has an initial concentration was 100 nM, then diluted in 10-fold to obtain 7 gradients: 10⁻⁴ nM, 10⁻³ nM, 10⁻² nM, 10⁻¹ nM, […], and 10² nM. The prepared antibody solutions were used to resuspend the cells, 100 μL/well. The resuspended cell culture plates were incubated in a 4° C. freezer for 1 h. After centrifugation at 1500 rpm for 5 minutes, the supernatant was discarded. The precipitate was washed with 160 μL of PBS containing 1% BSA, the supernatant was discarded, and the cells were stored for later use.
(§3) The Secondary antibody (goat anti human IgG Fc PE) solution was prepared with PBS containing 1% BSA, and diluted 1:200. The cells were resuspended with the prepared secondary antibody solution, 100 μL/well, incubated in a 4° C. freezer for 0.5 h. After centrifugation at 1,500 rpm for 5 minutes, the supernatant was discarded, the precipitated cells were washed with 160 μL of PBS containing 1% BSA, the supernatant was discarded, the cells were resuspended with 100 μL of PBS containing 1% BSA, and filtered in 300-mesh gauze. The mean fluorescence intensity of antibody binding to cells was then analyzed on a flow cytometer. The FCS file was exported from the flow cytometer, the mean fluorescence intensity (hereinafter referred to as MFI) of PE channel was analyzed with Flowjo software, and the mean fluorescence intensity obtained was introduced into the Graphpad to analyze the half binding concentration (hereinafter referred to as EC₅₀) and the top mean fluorescence intensity (Top MFI) of the antibody and the cell.

[3] = target: T2, human NKp46 (full length, on cells); assay: cell-based or functional assay
[4] = target: T3, cynomolgus monkey NKp46 (full length, on cells) (cynomolgus monkey, UniProt Q95JB9 22-306); assay: flow cytometry on cynomolgus monkey NKp46-CHOK1 cells
T3 construct: also called cynomolgus monkey NKp46-CHOK1; cynomolgus NKp46-CHOK1
Experimental: as §2, §3

[5] = target: T4, Cynomolgus monkey NKp46 for immunization, screening, and testing (Kactus, NKP-CM146) (cynomolgus monkey, UniProt Q95JB9 22-254); assay: SPR (Biacore 8K), antibody captured on anti-human Fc, NKp46 as analyte, 1:1 fit
T4 construct: Bought protein; also called monkey NKp46 antigen protein; cynomolgus monkey NKp46 antigen
Experimental: Cynomolgus monkey NKp46 was diluted in two-fold to a serial concentration (400 nM-3.125 nM), combined for 90 s at a flow rate of 50 μL/min and dissociated for 500 s.
as §1

T3 sequence (Q95JB9 22-306): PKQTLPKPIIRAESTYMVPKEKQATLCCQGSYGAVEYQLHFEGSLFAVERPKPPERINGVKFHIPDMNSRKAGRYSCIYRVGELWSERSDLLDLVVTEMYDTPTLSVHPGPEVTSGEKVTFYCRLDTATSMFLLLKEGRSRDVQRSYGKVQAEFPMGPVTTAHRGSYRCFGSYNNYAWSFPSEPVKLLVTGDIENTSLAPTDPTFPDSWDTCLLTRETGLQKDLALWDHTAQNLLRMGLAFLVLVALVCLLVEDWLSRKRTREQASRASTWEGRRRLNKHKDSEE
T2 sequence (O76036 22-304 Q82K): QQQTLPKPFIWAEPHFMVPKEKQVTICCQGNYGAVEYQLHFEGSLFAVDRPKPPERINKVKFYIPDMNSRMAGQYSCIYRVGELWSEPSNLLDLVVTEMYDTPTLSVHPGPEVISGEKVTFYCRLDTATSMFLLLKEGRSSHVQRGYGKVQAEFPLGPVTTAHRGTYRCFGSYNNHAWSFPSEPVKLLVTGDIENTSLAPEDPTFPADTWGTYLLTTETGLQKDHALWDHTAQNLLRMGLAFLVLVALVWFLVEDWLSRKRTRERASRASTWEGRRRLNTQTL
T1 sequence (O76036 other isoform, or with tags, fused parts or gaps limits assumed): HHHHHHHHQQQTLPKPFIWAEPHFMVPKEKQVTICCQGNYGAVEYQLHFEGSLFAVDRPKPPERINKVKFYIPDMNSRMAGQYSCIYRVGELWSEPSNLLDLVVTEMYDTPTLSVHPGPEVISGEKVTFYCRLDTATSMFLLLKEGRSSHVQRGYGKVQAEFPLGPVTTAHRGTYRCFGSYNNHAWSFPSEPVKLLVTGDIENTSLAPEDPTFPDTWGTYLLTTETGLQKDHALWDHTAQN
T4 sequence (Q95JB9 other isoform, or with tags, fused parts or gaps limits assumed): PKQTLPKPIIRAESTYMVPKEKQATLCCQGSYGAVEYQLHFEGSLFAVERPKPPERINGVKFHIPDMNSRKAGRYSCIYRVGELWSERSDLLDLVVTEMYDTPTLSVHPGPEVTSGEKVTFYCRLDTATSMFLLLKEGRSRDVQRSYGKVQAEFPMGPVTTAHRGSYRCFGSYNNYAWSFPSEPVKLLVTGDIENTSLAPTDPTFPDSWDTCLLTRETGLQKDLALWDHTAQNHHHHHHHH

B1: H4-PA45 humanized antibody (antibody, V domains shown)
VH: EVQLVESGGGLVQPGGSLRLSCAASGRTFSRLPMAWFRQAPGKDREFVAAISWSGGSTYYADSMKGRFTISRDNSKNTAYLQMNSLRAEDTAVYYCAAVGDSAPYSATIVYTDARAYAYWGQGTLVTVSS
notes: not shown: constant region of human IgG1
Kd [1]: 21.9 nM | koff [1]: 0.00204 s⁻¹ | kon [1]: 93000 M⁻¹ s⁻¹ | EC50 [2]: 0.205 nM | Top MFI [2]: 5760 | EC50 of NK cell activation (CD107a-positive NK cells, plate-coated antibody) [3]: 0.4 nM | Top mean fluorescence intensity (Top MFI), NK cell activation (CD107a) [3]: 37.6 | EC50 [4]: 1.53 nM | Top MFI [4]: 3400

B2: H1-PC11 humanized antibody (antibody, human IgG1, V domains shown)
VH: EVQLVESGGGLVQPGGSLRLSCAASPYSANSFSMAWFRQAPGKGLEGVACIQAESGSTNVAPSVKGRFTISQDNSKNTLYLQMNSLRAEDTAVYYCAAFKRNVGGCELRPEHWRFWGQGTLVTVSS
notes: as for B1
Kd [1]: 6.05 nM | koff [1]: 0.000307 s⁻¹ | kon [1]: 50800 M⁻¹ s⁻¹ | EC50 [2]: 0.389 nM | Top MFI [2]: 6710 | Kd [5]: 115 nM | koff [5]: 0.00589 s⁻¹ | kon [5]: 51300 M⁻¹ s⁻¹ | EC50 of NK cell activation (CD107a-positive NK cells, plate-coated antibody) [3]: 0.85 nM | Top mean fluorescence intensity (Top MFI), NK cell activation (CD107a) [3]: 21 | EC50 [4]: 0.345 nM | Top MFI [4]: 3260

B3: H2-PC11 humanized antibody (antibody, human IgG1, V domains shown)
VH: EVQLVESGGGLVQPGGSLRLSCAPSPYSANSFSMAWFRQAPGKGLEGIACIQAESGSTNVAPSVKGRFTISQDNSKNTLYLQMNSLRAEDTAVYYCAAFKRNVGGCELRPEHWRFWGQGTLVTVSS
notes: as for B1
Kd [1]: 2.05 nM | koff [1]: 0.000126 s⁻¹ | kon [1]: 61300 M⁻¹ s⁻¹ | EC50 [2]: 0.363 nM | Top MFI [2]: 6940 | EC50 of NK cell activation (CD107a-positive NK cells, plate-coated antibody) [3]: 0.87 nM | Top mean fluorescence intensity (Top MFI), NK cell activation (CD107a) [3]: 18.8 | EC50 [4]: 0.301 nM | Top MFI [4]: 3540

B4: H3-PC11 humanized antibody (antibody, human IgG1, V domains shown)
VH: EVQLVESGGGLVQPGGSLRLSCAASPYSANSFSMAWFRQAPGKGREGVACIQAESGSTNVAPSVKGRFTISQDNSKNTLYLQMNSLRAEDTAVYYCAAFKRNVGGCELRPEHWRFWGQGTLVTVSS
notes: as for B1
Kd [1]: 1.14 nM | koff [1]: 7.75e-05 s⁻¹ | kon [1]: 67800 M⁻¹ s⁻¹ | EC50 [2]: 0.328 nM | Top MFI [2]: 6830 | EC50 of NK cell activation (CD107a-positive NK cells, plate-coated antibody) [3]: 1.21 nM | Top mean fluorescence intensity (Top MFI), NK cell activation (CD107a) [3]: 19.6 | EC50 [4]: 0.297 nM | Top MFI [4]: 3280

B5: H2-PA27 humanized antibody (antibody, human IgG1, V domains shown)
VH: QVQLVESGGGVVQPGRSLRLSCAASGRTESWYRMGWFRQAPGKGLEVVARISGDTNIKYYAGSVKGRFTISRDNSKNTLYLQMSSLRAEDTAVYYCAADRTGATWDYWGQGTLVTVSS
notes: as for B1
Kd [1]: 22.1 nM | koff [1]: 0.00216 s⁻¹ | kon [1]: 97700 M⁻¹ s⁻¹ | EC50 [2]: 0.153 nM | Top MFI [2]: 6940 | Kd [5]: 23.4 nM | koff [5]: 0.0059 s⁻¹ | kon [5]: 252000 M⁻¹ s⁻¹ | EC50 of NK cell activation (CD107a-positive NK cells, plate-coated antibody) [3]: > 20 nM | Top mean fluorescence intensity (Top MFI), NK cell activation (CD107a) [3]: 14.1 | EC50 [4]: 0.069 nM | Top MFI [4]: 3800

B6: H4-PA27 humanized antibody (antibody, human IgG1, V domains shown)
VH: DVQLVESGGGVVQPGRSLRLSCAASGRTESWYRMGWFRQAPGKGREVVARISGDTNIKYYAGSVKGRFTISRDNSKNTLYLQMSSLRAEDTAVYYCAADRTGATWDYWGQGTLVTVSS
notes: as for B1
Kd [1]: 23.7 nM | koff [1]: 0.00266 s⁻¹ | kon [1]: 112000 M⁻¹ s⁻¹ | EC50 [2]: 0.145 nM | Top MFI [2]: 6650 | EC50 of NK cell activation (CD107a-positive NK cells, plate-coated antibody) [3]: 10.7 nM | Top mean fluorescence intensity (Top MFI), NK cell activation (CD107a) [3]: 18.1 | EC50 [4]: 0.074 nM | Top MFI [4]: 3880
